Experimental data: patent publication US20250025478A1 (published 2025)

Target: T1, RNF213-TurboID (Homo sapiens (Human), UniProt Q63HN8 1-5207)
T1 construct: Recombined into HeLa FlpIn-TRex RNF213-KO cells; proximity-labelling bait; also called C-Turbo; 3×-FLAG-RNF213-TurboID; not shown: 3×-FLAG tag; TurboID biotin ligase at the C-terminus
Assay: TurboID proximity biotinylation, streptavidin recovery, MS, SAINT express
Description: Proteins were ranked as potential binding partners by using the SAINT express algorithm³⁶ Immunoblotting (FIG. 9A) and silver staining (FIG. 9B) confirmed that similar amounts of each sample were submitted for analysis. Relatively few proteins labelled by N-Turbo were labelled to an extent greater than their labeling by Control-Turbo (FIG. 9C). […] Among the other top candidates were the major K63-deubiquitinase and NF-κB regulator CYLD and its interacting protein SPATA2 (FIG. 2B, orange-colored arrows). […] Other top C-Turbo interactors included proteins involved in VEGF signaling, which is induced in hypoxia (FLII, MYOF^{39,40}), inflammation and atherosclerosis (MAP4K4, SPTLC1^{41,42}), lipotoxicity (SPTLC1, ALDH1B1^{43,44}), ischemia response (CPEB4⁴⁵), and stroke (SARS2⁴⁶). Top N-Turbo interactors included CYP51A1, which plays a crucial role in cholesterol metabolism and atherosclerosis⁴⁷.
Cells were cultured in standard media but with 10% tetracycline (Tet)-free FBS (Clonetech) for at least 1 week. Tet-free/biotin-free FBS was generated by incubating Tet-free FBS with sterile streptavidin beads overnight followed by centrifugation to remove the beads. N-Turbo, C-Turbo, and Turbo proteins were induced by adding 1 μg/ml Dox to cells for 36 hours. For the last ten min. of incubation, 500 μM of biotin was added to the medium. Labelling reactions was terminated by removing the medium and adding ice-cold PBS to plates, which were kept on ice. Lysates were collected in RIPA buffer without Na-deoxycholate, and biotin-labelled proteins were collected by incubating with high-capacity streptavidin agarose beads for 4 hours at 4° C.

T1 sequence (Q63HN8 whole entry N1045D): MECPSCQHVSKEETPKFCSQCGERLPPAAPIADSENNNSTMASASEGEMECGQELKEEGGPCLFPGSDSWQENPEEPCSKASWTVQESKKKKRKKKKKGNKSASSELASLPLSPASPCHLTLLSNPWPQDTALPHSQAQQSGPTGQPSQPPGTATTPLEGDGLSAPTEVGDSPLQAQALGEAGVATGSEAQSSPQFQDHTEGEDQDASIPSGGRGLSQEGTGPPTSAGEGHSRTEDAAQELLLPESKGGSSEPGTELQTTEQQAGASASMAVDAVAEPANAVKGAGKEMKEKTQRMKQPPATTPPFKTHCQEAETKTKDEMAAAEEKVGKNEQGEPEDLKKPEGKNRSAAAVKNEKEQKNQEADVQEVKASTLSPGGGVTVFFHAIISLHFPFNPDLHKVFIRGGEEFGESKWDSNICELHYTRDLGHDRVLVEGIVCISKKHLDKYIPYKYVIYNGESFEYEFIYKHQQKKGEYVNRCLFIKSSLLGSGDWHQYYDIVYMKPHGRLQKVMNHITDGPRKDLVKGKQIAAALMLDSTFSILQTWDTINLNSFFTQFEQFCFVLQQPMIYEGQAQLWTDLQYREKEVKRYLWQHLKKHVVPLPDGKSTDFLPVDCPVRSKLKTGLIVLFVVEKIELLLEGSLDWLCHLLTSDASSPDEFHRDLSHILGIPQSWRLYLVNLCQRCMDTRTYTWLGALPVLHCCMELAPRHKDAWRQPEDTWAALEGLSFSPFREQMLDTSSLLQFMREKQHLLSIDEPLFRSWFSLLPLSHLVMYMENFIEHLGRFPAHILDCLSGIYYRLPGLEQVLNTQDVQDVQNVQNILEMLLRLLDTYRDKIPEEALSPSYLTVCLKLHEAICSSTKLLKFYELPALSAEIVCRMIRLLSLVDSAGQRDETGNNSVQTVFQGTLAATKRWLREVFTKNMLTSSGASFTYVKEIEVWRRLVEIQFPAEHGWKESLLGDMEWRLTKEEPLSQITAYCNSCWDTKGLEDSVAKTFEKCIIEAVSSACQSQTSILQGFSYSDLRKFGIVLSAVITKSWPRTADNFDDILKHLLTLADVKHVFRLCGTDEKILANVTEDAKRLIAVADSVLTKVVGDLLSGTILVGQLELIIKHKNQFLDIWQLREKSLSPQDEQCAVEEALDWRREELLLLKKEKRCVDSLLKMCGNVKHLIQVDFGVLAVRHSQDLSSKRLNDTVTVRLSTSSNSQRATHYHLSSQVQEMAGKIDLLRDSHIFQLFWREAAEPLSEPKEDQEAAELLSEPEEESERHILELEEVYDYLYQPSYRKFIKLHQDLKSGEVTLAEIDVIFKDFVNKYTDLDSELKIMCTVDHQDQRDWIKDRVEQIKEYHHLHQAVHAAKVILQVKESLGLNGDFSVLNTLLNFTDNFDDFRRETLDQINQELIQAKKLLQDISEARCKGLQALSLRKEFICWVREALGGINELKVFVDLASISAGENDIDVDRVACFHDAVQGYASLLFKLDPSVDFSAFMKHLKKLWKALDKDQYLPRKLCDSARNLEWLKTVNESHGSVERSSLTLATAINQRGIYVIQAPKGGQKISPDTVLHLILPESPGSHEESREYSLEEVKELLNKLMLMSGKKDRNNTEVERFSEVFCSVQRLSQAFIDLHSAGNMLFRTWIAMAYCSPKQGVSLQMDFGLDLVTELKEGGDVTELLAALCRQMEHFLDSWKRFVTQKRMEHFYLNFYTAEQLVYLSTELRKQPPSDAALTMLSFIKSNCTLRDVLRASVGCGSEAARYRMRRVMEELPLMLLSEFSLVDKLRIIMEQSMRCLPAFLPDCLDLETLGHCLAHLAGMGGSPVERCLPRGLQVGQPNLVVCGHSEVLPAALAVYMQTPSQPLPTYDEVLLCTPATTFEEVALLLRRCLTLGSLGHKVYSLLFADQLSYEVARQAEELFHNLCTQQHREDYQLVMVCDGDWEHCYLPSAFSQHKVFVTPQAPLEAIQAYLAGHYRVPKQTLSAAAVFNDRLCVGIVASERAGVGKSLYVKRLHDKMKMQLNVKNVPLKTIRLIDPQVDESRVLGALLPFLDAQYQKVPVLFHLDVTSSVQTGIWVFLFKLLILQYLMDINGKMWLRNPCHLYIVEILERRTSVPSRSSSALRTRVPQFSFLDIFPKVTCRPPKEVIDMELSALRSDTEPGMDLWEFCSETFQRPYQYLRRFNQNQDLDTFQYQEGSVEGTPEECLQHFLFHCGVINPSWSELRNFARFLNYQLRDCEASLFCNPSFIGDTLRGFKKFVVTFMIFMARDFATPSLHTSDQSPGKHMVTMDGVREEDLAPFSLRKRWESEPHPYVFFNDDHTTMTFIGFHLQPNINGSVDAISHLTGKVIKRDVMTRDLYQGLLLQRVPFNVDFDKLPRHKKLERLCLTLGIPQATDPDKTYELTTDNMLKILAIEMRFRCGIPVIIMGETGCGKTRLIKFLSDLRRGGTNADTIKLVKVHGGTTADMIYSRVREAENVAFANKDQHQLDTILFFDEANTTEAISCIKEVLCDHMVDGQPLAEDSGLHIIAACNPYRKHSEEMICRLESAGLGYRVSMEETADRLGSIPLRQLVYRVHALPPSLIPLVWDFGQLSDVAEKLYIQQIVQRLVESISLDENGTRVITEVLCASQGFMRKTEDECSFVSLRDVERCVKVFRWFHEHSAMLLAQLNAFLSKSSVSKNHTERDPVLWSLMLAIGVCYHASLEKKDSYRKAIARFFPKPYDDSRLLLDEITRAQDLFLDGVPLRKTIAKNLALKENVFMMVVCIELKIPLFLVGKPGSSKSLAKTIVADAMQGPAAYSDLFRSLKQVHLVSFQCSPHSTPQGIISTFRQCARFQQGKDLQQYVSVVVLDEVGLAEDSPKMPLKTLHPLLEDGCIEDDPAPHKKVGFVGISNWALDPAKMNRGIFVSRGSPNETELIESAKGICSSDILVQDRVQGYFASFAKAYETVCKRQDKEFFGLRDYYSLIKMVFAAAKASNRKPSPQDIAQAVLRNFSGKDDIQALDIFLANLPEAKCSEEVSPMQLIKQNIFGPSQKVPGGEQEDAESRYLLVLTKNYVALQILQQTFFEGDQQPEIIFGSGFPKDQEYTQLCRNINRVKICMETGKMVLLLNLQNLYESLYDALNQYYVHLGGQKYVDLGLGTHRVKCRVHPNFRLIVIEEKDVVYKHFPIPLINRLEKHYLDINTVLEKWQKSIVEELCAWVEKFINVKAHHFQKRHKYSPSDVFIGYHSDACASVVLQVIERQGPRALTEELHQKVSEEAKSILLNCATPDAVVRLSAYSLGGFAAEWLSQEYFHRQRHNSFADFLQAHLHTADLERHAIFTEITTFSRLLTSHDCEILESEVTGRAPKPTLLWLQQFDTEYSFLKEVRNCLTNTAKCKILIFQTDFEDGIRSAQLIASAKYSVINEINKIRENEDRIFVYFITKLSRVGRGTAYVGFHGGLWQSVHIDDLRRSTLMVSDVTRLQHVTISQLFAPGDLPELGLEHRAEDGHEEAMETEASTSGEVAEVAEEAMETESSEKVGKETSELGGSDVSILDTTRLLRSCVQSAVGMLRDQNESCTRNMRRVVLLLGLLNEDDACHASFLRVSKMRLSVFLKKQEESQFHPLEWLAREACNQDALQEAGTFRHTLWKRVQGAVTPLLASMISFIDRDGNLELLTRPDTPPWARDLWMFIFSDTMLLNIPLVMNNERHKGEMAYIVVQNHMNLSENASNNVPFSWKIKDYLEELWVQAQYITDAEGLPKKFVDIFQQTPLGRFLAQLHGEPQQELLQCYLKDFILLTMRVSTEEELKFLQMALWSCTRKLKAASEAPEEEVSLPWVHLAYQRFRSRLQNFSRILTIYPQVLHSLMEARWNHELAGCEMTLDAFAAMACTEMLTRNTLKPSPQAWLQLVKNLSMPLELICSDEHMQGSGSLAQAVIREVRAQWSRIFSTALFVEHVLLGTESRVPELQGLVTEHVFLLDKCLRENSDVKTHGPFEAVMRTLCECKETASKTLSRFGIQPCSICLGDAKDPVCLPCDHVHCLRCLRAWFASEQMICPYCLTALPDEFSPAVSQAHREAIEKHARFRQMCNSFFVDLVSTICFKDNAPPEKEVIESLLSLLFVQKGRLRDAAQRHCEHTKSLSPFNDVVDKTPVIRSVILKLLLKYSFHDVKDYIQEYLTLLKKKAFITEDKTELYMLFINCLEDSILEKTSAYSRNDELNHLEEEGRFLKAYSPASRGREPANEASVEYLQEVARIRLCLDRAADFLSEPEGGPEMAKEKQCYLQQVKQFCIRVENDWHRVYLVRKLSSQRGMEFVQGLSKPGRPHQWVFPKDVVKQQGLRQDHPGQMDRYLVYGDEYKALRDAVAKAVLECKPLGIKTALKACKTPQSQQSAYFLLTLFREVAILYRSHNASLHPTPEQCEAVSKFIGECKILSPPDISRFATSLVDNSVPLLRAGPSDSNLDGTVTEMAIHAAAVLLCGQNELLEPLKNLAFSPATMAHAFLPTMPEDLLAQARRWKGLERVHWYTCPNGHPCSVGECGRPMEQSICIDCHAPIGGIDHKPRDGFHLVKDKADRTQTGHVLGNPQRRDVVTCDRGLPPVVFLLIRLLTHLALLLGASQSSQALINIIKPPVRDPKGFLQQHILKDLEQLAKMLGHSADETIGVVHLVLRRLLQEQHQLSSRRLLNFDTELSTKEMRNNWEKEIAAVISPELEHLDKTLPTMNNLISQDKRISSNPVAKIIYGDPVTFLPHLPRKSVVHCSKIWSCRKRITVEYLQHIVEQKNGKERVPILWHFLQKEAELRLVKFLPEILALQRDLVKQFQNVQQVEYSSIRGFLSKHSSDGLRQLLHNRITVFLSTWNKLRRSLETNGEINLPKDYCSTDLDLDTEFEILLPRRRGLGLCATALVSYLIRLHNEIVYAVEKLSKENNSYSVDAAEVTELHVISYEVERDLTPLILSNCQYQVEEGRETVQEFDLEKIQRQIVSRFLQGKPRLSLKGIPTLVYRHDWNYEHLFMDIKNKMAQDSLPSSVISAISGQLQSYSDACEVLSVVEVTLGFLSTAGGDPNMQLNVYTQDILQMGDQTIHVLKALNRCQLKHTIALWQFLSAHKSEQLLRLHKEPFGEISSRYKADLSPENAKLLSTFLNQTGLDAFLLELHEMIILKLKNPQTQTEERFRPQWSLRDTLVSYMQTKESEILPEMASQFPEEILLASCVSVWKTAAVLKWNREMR

B1: SARS2 (enzyme, Homo sapiens, UniProt Q9NP81 35-518, looked up)
chain: TTEKRNRNLLYEYAREGYSALPQLDIERFCACPEEAAHALELRKGELRSADLPAIISTWQELRQLQEQIRSLEEEKAAVTEAVRALLANQDSGEVQQDPKYQGLRARGREIRKELVHLYPREAQLEEQFYLQALKLPNQTHPDVPVGDESQARVLHMVGDKPVFSFQPRGHLEIGEKLDIIRQKRLSHVSGHRSYYLRGAGALLQHGLVNFTFNKLLRRGFTPMTVPDLLRGAVFEGCGMTPNANPSQIYNIDPARFKDLNLAGTAEVGLAGYFMDHTVAFRDLPVRMVCSSTCYRAETNTGQEPRGLYRVHHFTKVEMFGVTGPGLEQSSQLLEEFLSLQMEILTELGLHFRVLDMPTQELGLPAYRKFDIEAWMPGRGRFGEVTSASNCTDFQSRRLHIMFQTEAGELQFAHTVNATACAVPRLLIALLESNQQKDGSVLVPPALQSYLGTDRITAPTHVPLQYIGPNQPRKPGLPGQPAVS
notes: Endogenous protein found by proximity labelling/MS; also called Serine -- tRNA ligase, mitochondrial
binding result: binds

B2: MAP4K4 (enzyme, Homo sapiens, UniProt O95819-4 2-1165, looked up)
chain: ANDSPAKSLVDIDLSSLRDPAGIFELVEVVGNGTYGQVYKGRHVKTGQLAAIKVMDVTEDEEEEIKLEINMLKKYSHHRNIATYYGAFIKKSPPGHDDQLWLVMEFCGAGSITDLVKNTKGNTLKEDWIAYISREILRGLAHLHIHHVIHRDIKGQNVLLTENAEVKLVDFGVSAQLDRTVGRRNTFIGTPYWMAPEVIACDENPDATYDYRSDLWSCGITAIEMAEGAPPLCDMHPMRALFLIPRNPPPRLKSKKWSKKFFSFIEGCLVKNYMQRPSTEQLLKHPFIRDQPNERQVRIQLKDHIDRTRKKRGEKDETEYEYSGSEEEEEEVPEQEGEPSSIVNVPGESTLRRDFLRLQQENKERSEALRRQQLLQEQQLREQEEYKRQLLAERQKRIEQQKEQRRRLEEQQRREREARRQQEREQRRREQEEKRRLEELERRRKEEEERRRAEEEKRRVEREQEYIRRQLEEEQRHLEVLQQQLLQEQAMLLHDHRRPHPQHSQQPPPPQQERSKPSFHAPEPKAHYEPADRAREVPVRTTSRSPVLSRRDSPLQGSGQQNSQAGQRNSTSIEPRLLWERVEKLVPRPGSGSSSGSSNSGSQPGSHPGSQSGSGERFRVRSSSKSEGSPSQRLENAVKKPEDKKEVFRPLKPAGEVDLTALAKELRAVEDVRPPHKVTDYSSSSEESGTTDEEDDDVEQEGADESTSGPEDTRAASSLNLSNGETESVKTMIVHDDVESEPAMTPSKEGTLIVRQTQSASSTLQKHKSSSSFTPFIDPRLLQISPSSGTTVTSVVGFSCDGMRPEAIRQDPTRKGSVVNVNPTNTRPQSDTPEIRKYKKRFNSEILCAALWGVNLLVGTESGLMLLDRSGQGKVYPLINRRRFQQMDVLEGLNVLVTISGKKDKLRVYYLSWLRNKILHNDPEVEKKQGWTTVGDLEGCVHYKVVKYERIKFLVIALKSSVEVYAWAPKPYHKFMAFKSFGELVHKPLLVDLTVEEGQRLKVIYGSCAGFHAVDVDSGSVYDIYLPTHVRKNPHSMIQCSIKPHAIIILPNTDGMELLVCYEDEGVYVNTYGRITKDVVLQWGEMPTSVAYIRSNQTMGWGEKAIEIRSVETGHLDGVFMHKRAQRLKFLCERNDKVFFASVRSGGSSQVYFMTLGRTSLLSW
notes: Endogenous protein found by proximity labelling/MS
binding result: binds

B3: FLII (other, Homo sapiens, UniProt Q13045-2 1-1214, looked up)
chain: MEATGVLPFVRGVDLSGNDFKGGYFPENVKAMTSLRWLKLNRTGLCYLPEELAALQKLEHLSVSHNNLTTLHGELSSLPSLRAIVARANSLKNSGVPDDIFKLDDLSVLDLSHNQLTECPRELENAKNMLVLNLSHNRQLPAMTALQTLHLRSTQRTQSNLPTSLEGLSNLADVDLSCNDLTRVPECLYTLPSLRRLNLSSNQITELSLCIDQWVHVETLNLSRNQLTSLPSAICKLSKLKKLYLNSNKLDFDGLPSGIGKLTNLEEFMAANNNLELVPESLCRCPKLRKLVLNKNHLVTLPEAIHFLTEIEVLDVRENPNLVMPPKPADRAAEWYNIDFSLQNQLRLAGASPATVAAAAAGSGPKDPMARKMRLRRRKDSAQDDQAKQVLKGMSDVAQEKNKKQEESADARAPSGKVRRWDQGLEKPRLDYSEFFTEDVGQLPGLTIWQIENFVPVLVEEAFHGKFYEADCYIVLKTFLDDSGSLNWEIYYWIGGEATLDKKACSAIHAVNLRNYLGAECRTVREEMGDESEEFLQVFDNDISYIEGGTASGFYTVEDTHYVTRMYRVYGKKNIKLEPVPLKGTSLDPRFVFLLDRGLDIYVWRGAQATLSSTTKARLFAEKINKNERKGKAEITLLVQGQELPEFWEALGGEPSEIKKHVPEDFWPPQPKLYKVGLGLGYLELPQINYKLSVEHKQRPKVELMPRMRLLQSLLDTRCVYILDCWSDVFIWLGRKSPRLVRAAALKLGQELCGMLHRPRHATVSRSLEGTEAQVFKAKFKNWDDVLTVDYTRNAEAVLQSPGLSGKVKRDAEKKDQMKADLTALFLPRQPPMSLAEAEQLMEEWNEDLDGMEGFVLEGKKFARLPEEEFGHFYTQDCYVFLCRYWVPVEYEEEEKKEDKEEKAEGKEGEEATAEAEEKQPEEDFQCIVYFWQGREASNMGWLTFTFSLQKKFESLFPGKLEVVRMTQQQENPKFLSHFKRKFIIHRGKRKAVQGAQQPSLYQIRTNGSALCTRCIQINTDSSLLNSEFCFILKVPFESEDNQGIVYAWVGRASDPDEAKLAEDILNTMFDTSYSKQVINEGEEPENFFWVGIGAQKPYDDDAEYMKHTRLFRCSNEKGYFAVTEKCSDFCQDDLADDDIMLLDNGQEVYMWVGTQTSQVEIKLSLKACQVYIQHMRSKEHERPRRLRLVRKGNEQHAFTRCFHAWSAFCKALA
notes: Endogenous protein found by proximity labelling/MS; also called Protein flightless-1 homolog
binding result: binds

B4: ALDH1B1 (enzyme, Homo sapiens, UniProt P30837 18-517, looked up)
chain: RYSSAAALPSPILNPDIPYNQLFINNEWQDAVSKKTFPTVNPTTGEVIGHVAEGDRADVDRAVKAAREAFRLGSPWRRMDASERGRLLNRLADLVERDRVYLASLETLDNGKPFQESYALDLDEVIKVYRYFAGWADKWHGKTIPMDGQHFCFTRHEPVGVCGQIIPWNFPLVMQGWKLAPALATGNTVVMKVAEQTPLSALYLASLIKEAGFPPGVVNIITGYGPTAGAAIAQHVDVDKVAFTGSTEVGHLIQKAAGDSNLKRVTLELGGKSPSIVLADADMEHAVEQCHEALFFNMGQCCCAGSRTFVEESIYNEFLERTVEKAKQRKVGNPFELDTQQGPQVDKEQFERVLGYIQLGQKEGAKLLCGGERFGERGFFIKPTVFGGVQDDMRIAKEEIFGPVQPLFKFKKIEEVVERANNTRYGLAAAVFTRDLDKAMYFTQALQAGTVWVNTYNIVTCHTPFGGFKESGNGRELGEDGLKAYTEVKTVTIKVPQKNS
notes: Endogenous protein found by proximity labelling/MS; also called Aldehyde dehydrogenase X, mitochondrial
binding result: binds

B5: CPEB4 (other, Homo sapiens, UniProt Q17RY0-2 1-712, looked up)
chain: MGDYGFGVLVQSNTGNKSAFPVRFHPHLQPPHHHQNATPSPAAFINNNTAANGSSAGSAWLFPAPATHNIQDEILGSEKAKSQQQEQQDPLEKQQLSPSPGQEAGILPETEKAKSEENQGDNSSENGNGKEKIRIESPVLTGFDYQEATGLGTSTQPLTSSASSLTGFSNWSAAIAPSSSTIINEDASFFHQGGVPAASANNGALLFQNFPHHVSPGFGGSFSPQIGPLSQHHPHHPHFQHHHSQHQQQRRSPASPHPPPFTHRNAAFNQLPHLANNLNKPPSPWSSYQSPSPTPSSSWSPGGGGYGGWGGSQGRDHRRGLNGGITPLNSISPLKKNFASNHIQLQKYARPSSAFAPKSWMEDSLNRADNIFPFPDRPRTFDMHSLESSLIDIMRAENDTIKARTYGRRRGQSSLFPMEDGFLDDGRGDQPLHSGLGSPHCFSHQNGERVERYSRKVFVGGLPPDIDEDEITASFRRFGPLIVDWPHKAESKSYFPPKGYAFLLFQDESSVQALIDACIEEDGKLYLCVSSPTIKDKPVQIRPWNLSDSDFVMDGSQPLDPRKTIFVGGVPRPLRAVELAMIMDRLYGGVCYAGIDTDPELKYPKGAGRVAFSNQQSYIAAISARFVQLQHGEIDKRVEVKPYVLDDQLCDECQGARCGGKFAPFFCANVTCLQYYCEYCWAAIHSRAGREFHKPLVKEGGDRPRHISFRWN
notes: as for B2
binding result: binds

B6: SPTLC1 (enzyme, Homo sapiens, UniProt O15269 1-473, looked up)
chain: MATATEQWVLVEMVQALYEAPAYHLILEGILILWIIRLLFSKTYKLQERSDLTVKEKEELIEEWQPEPLVPPVPKDHPALNYNIVSGPPSHKTVVNGKECINFASFNFLGLLDNPRVKAAALASLKKYGVGTCGPRGFYGTFDVHLDLEDRLAKFMKTEEAIIYSYGFATIASAIPAYSKRGDIVFVDRAACFAIQKGLQASRSDIKLFKHNDMADLERLLKEQEIEDQKNPRKARVTRRFIVVEGLYMNTGTICPLPELVKLKYKYKARIFLEESLSFGVLGEHGRGVTEHYGINIDDIDLISANMENALASIGGFCCGRSFVIDHQRLSGQGYCFSASLPPLLAAAAIEALNIMEENPGIFAVLKEKCGQIHKALQGISGLKVVGESLSPAFHLQLEESTGSREQDVRLLQEIVDQCMNRSIALTQARYLEKEEKCLPPPSIRVVVTVEQTEEELERAASTIKEVAQAVLL
notes: Endogenous protein found by proximity labelling/MS; also called Serine palmitoyltransferase 1
binding result: binds
